Measured values: patent publication US8357523B2, “Beta-glucosidase variant enzymes and related polynucleotides” (Codexis, Inc., priority 2009, dated 2013)

Assay: High throughput cellobiose assay: fold improvement in cellobiase activity of CelA variants over a control enzyme (Tables 2A-2D, 3, 5, 6, 7)
Assay type: biochemical
Settings: 3.3 g/l cellobiose, 50° C. and pH 6.5; compared to native CelA (SEQ ID NO: 4)
Method: β-glucosidase activity was also determined using a cellobiose assay, which used cellobiose as substrate. In a total volume of 100 μL, 25 μL clear media supernatant containing CelA enzyme was added to 10 g/L cellobiose (Fluka Cat. No. 22150, Sigma-Aldrich, Inc., St. Louis, Mo.) in 100 mM sodium phosphate buffer (pH 6-7) or sodium acetate buffer (pH 5-5.5). The reaction was incubated at 45-70° C. for an appropriate time (25 minutes to overnight depending on the enzyme concentration) while shaking. Glucose production was determined using an enzymatic glucose assay (K-GLUC, Megazyme, Ireland). 10 μl of each reaction was added to 190 μl GOPOD reagent (supplied as part of the K-GLUC assay kit). The reaction was incubated at 45° C. for 20 minutes and the absorbance of the solution was measured at 510 nm. The GOPOD reagent contains 50 mM Potassium phosphate buffer pH7.4, 0.011M p-hydroxybenzoic acid, 0.008% w/v sodium azide, glucose oxidase (>12,000 U/L), peroxidase (>650 U/L) and 80 mg/L 4-aminoantipyrine. The glucose oxidase enzyme in the reagent reacts with any glucose present in the sample and produces hydrogen peroxide which then reacts with the 4-aminoantipyrine to produce a quinoneimine dye in quantities proportionate with the amount of glucose present and can be measured spectrophotometrically at 510 nm. Detectable β-glucosidase activity was observed under high throughput screening conditions (i.e., pH 7, 50° C.).
Plasmid libraries containing variant CelA genes were transformed into B. megaterium and plated on Luria-Bertani (LB) agar plates containing 3 μg/mL tetracycline with a DM3 regeneration media overlay (400 mM sodium succinate dibasic, pH 7.3, 0.5% casamino acids, 0.5% yeast extract, 0.4% K2HPO4, 0.2% KH2PO4, 20 mM MgCl2, 0.5% glucose and 0.2% BSA). After incubation for at least 18 hours at 30° C., colonies were picked using a Q-bot® robotic colony picker (Genetix USA, Inc., Beaverton, Oreg.) into shallow, 96-well well microtiter plates containing 180 μL, LB and 10 μg/mL tetracycline. Cells were grown overnight at 37° C. with shaking at 200 rpm and 85% humidity. 10 μL of this culture was then transferred into 96-well microtiter plates (deep well) containing 390 μL A5-glucose-xylose medium and 10 μg/mL tetracycline as described in example 2. The plates were then incubated at 37° C. with shaking at 250 rpm and 85% humidity overnight (˜18-24 hours). The deep plates were centrifuged at 4000 rpm for 15 minutes and the clear media supernatant containing the secreted CelA enzyme was used for the high throughput pNPG or cellobiose assay of Example 5.
The CelA libraries were screened in high throughput using the cellobiose assay of Example 5 (Substrate: cellobiose; pH: 5-7; temperature: 45-72° C.; time: 2-24 hrs) for the identification of improved variants.
In shallow, 96-well microtiter plates 25 μL of media supernatant was added to 75 μL of […] cellobiose in 150 mM sodium acetate buffer pH 5-5.5 or 150 mM sodium phosphate buffer pH6-7. After sealing with aluminum/polypropylene laminate heat seal tape (Velocity 11 (Menlo Park, Calif.), Cat#06643-001), the plates were shaken at 45-65° C. for up to 24 hrs. The plates were centrifuged for 5 minutes at 4000 rpm. In shallow well clear microtiter plates, 10 μL of the reaction mixture was added to 190 μL of GOPOD reagent (as in example 5B) per well. The solutions were incubated at 45° C. for 1 hour and absorbance was measured at 510 nm for the identification of active CelA variants.
Improved CelA variants were identified from the high throughput screening of various CelA variant libraries as described in Example 7, using the cellobiose assay of Example 5 using 3.3 g/l cellobiose at temperatures from 50°-55° C. at a pH in the range of 5.3-6.5. Tables 2A, 2B, 2C, and 2D and Table 3 depict the improvement in activities of CelA variants encompassed by the invention. The assay conditions are indicated in each table. […]

Molecule | Fold improvement over wildtype CelA
1 (protein) STAIAQEGAAPAAILHPEKWPRPATQRLIDPAVEKRVDALLKQLSVEEKVGQVIQGDIGTITPEDLRKYPLGSILAGGNSGPNGDDRAPPKEWLDLADAFYRVSLEKRPGHTPIPVLFGIDAVHGHGNIGSATIFPHNIALGATHDPELLRRIGEVTAVEMAATGIDWTFAPALSVVRDDRWGRTYEGFSEDPEIVAAYSAAIVESVQGKFGSKDFMAPGRIVASAKHFLADGGTDQGRDQGDARISEDELIRIHNAGYPPAIDAGVLTVMASFSSWQGIKHHGHKQLLTDVLKGQMGFNGFIVGDWNAHDQVPGCTKFNCPTSLIAGLDMYMAADSWKQLYENTLAQVKDGTIPMARLDDAVRRILRVKVLAGLFEKPAPKDRPGLPGLETLGSPEHRAVGREAVRKSLVLLKNDKGTLPLSPKARVLVAGDGADNIGKQSGGWTISWQGTGNRNDEFPGATSILGGIRDAVADAGGSVEFDVAGQYKTKPDVAIVVFGEEPYAEFQGDVETLEYQPDQKQDLALLKKLKDQGIPVVAVFLSGRPMWVNPELNASDAFVAAWLPGTEGGGVADVLFTDKAGKVQHDFAGKLSYSWPRTAAQTTVNRGDADYNPLFAYGYGLTYKDKSKVGTLPEESGVPAEARQNAGIYFRAGALRLPGRFL | + (+ = 1.1 to 2.0 fold improvement over native CelA (SEQ ID NO: 4))
2 (protein) STAIAQEGAAPAAILHPEKWPRPATQRLIDPAVEKRVDALLKQLSVEEKVGQVIQGDIGTITPEDLRKYPLGSILAGGNSGPNGDDRAPPKEWLDLADAFYRVSLEKRPGHTPIPVLFGIDAVHGHGKIGSATIFPHNIALGATHDPELLRRIGEVTAVEMAATGIDWTFAPALSVVRDDRWGRTYEGFSEDPEIVAAYSAAIVEGVQGKFGSKDFMAPGRIVASAKHFLADGGTDQGRDQGDARISEDELIRIHNAGYPPAIDAGVLTVMASFSSWQGIKHHGHKQLLTDVLKGQMGFNGFIVGDWNAHDQVPGCTKFNCPTSLIAGLDMYMAADSWKQLYENTLAQVKDGTIPMARLDDAVRRILRVKVLAGLFEKPAPKDRPGLPGLETLGSPEHRAVGREAVRKSLVLLKNDKGTLPLSPKARVLVAGDGADNIGKQSGGWTISWQGTGNRNDEFPGATSILGGIRDAVADAGGSVEFDVAGQYKTKPDVAIVVFGEEPYAEFQGDVETLEYQPDQKQDLALLKKLKDQGIPVVAVFLSGRPMWVNPELNASDAFVAAWLPGTEGGGVADVLFTDKAGKVQHDFAGKLSYSWPRTAAQTTVNRGDADYNPLFAYGYGLTYKDKSKVGTLPEESGVPAEARQNAGIYFRAGALRLPGRFL | + (+ = 1.1 to 2.0 fold improvement over native CelA (SEQ ID NO: 4))
3 (protein) STAIAQEGAAPAAILHPEKWPRPATQRLIDPAVEKRVDALLKQLSVEEKVGQVIQGDIGTITPEDLRKYPLGSILAGGNSGPNGDDRAPPKEWLDLADAFYRVSLEKRPGHTPIPVLFGIDAVHGHGNIGSATIFPHNIALGATHDPELLRRIGEVTAVEMAATGIDWTFAPALSVVRDDRWGRTYEGFSEDPEIVAAYSAAIVEGVQGKFGSKDFMAPGRIVASAKHFLADGGTDQGRDQGDARISEDELIRIHNAGYPPAIDAGVLTVMASFSSWQGIKHHGHKELLTDVLKGQMGFNGFIVGDWNAHDQVPGCTKFNCPTSLIAGLDMYMAADSWKQLYENTLAQVKDGTIPMARLDDAVRRILRVKVLAGLFEKPAPKDRPGLPGLETLGSPEHRAVGREAVRKSLVLLKNDKGTLPLSPKARVLVAGDGADNIGKQSGGWTISWQGTGNRNDEFPGATSILGGIRDAVADAGGSVEFDVAGQYKTKPDVAIVVFGEEPYAEFQGDVETLEYQPDQKQDLALLKKLKDQGIPVVAVFLSGRPMWVNPELNASDAFVAAWLPGTEGGGVADVLFTDKAGKVQHDFAGKLSYSWPRTAAQTTVNRGDADYNPLFAYGYGLTYKDKSKVGTLPEESGVPAEARQNAGIYFRAGALRLPGRFL | + (+ = 1.1 to 2.0 fold improvement over native CelA (SEQ ID NO: 4))
4 (protein) STAIAQEGAAPAAILHPEKWPRPATQRLIDPAVEKRVDALLKQLSVEEKVGQVIQGDIGTITPEDLRKYPLGSILAGGNSGPNGDDRAPPKEWLDLADAFYRVSLEKRPGHTPIPVLFGIDAVHGHGNIGSATIFPHNIALGATHDPELLRRIGEVTAVEMAATGIDWTFAPALSVVRDDRWGRTYEGFSEDPEIVAAYSAAIVEGVQGKFGSKDFMAPGRIVASAKHFLADGGTDQGRDQGDARISEDELIRIHNAGYPPAIDAGVLTVMASFSSWQGIKHHGHKQLLTDVLKGQMGFNGFIVGDWNAHGQVPGCTKFNCPTSLIAGLDMYMAADSWKQLYENTLAQVKDGTIPMARLDDAVRRILRVKVLAGLFEKPAPKDRPGLPGLETLGSPEHRAVGREAVRKSLVLLKNDKGTLPLSPKARVLVAGDGADNIGKQSGGWTISWQGTGNRNDEFPGATSILGGIRDAVADAGGSVEFDVAGQYKTKPDVAIVVFGEEPYAEFQGDVETLEYQPDQKQDLALLKKLKGQGIPVVAVFLSGRPMWVNPELNASDAFVAAWLPGTEGGGVADVLFTDKAGKVQHDFAGKLSYSWPRAAAQTTVNRGDADYNPLFAYGYGLTYKDKSKVGTLPEESGVPAEARQNAGIYFRAGALRLPGRFL | + (+ = 1.1 to 2.0 fold improvement over native CelA (SEQ ID NO: 4))
6 (protein) STAIAQEGAAPAAILHPEKWPRPATQRLIDPAVEKRVDALLKQLSVEEKVGQVIQGDIGTITPEDLRKYPLGSILAGGNSGPNGDDRAPPKEWLDLADAFYRVSLEKRPGHTPIPVLFGIDAVHGHGNIGSATIFPHNIALGATHDPELLRRIGEVTAVEMSATGIDWTFAPALSVVRDDRWGRTYEGFSEDPEIVAAYSAAIVEGVQGKFGSKDFMAPGRIVASAKHFLADGGTDQGRDQGDARISEDELIRIHNAGYPPAIDAGVLTVMASFSSWQGIKHHGHKQLLTDVLKGQMGFNGFIVGDWNAHDQVPGCTKFNCPTSLIAGLDMYMAADSWKQLYENTLAQVKDGTIPMARLDDAVRRILRVKVLAGLFEKPAPKDRPGLPGLETLGSPEHRAVGREAVRKSLVLLKNDKGTLPLSPKARVLVAGDGADNIGKQSGGWTISWQGTGNRNDEFPGATSILGGIRDAVADAGGSVEFDVAGQYKTKPDVAIVVFGEEPYAEFQGDVETLEYQPDQKQDLALLKKLKDQGIPVVAVFLSGRPMWVNPELNASDAFVAAWLPGTEGGGVADVLFTDKAGKVQHDFAGKLSYSWPRTAAQTTVNRGDADYNPLFAYGYGLTYKDKSKVGTLPEESGVPAEARQNAGIYFRAGALRLPGRFL | + (+ = 1.1 to 2.0 fold improvement over native CelA (SEQ ID NO: 4))
5 (protein) STAIAQEGAAPAAILHPEKWPRPATQRLIDPAVEKRVDALLKQLSVEEKVGQVIQGDIGTITPEDLRKYPLGSILAGGNSGPNGDDRAPPKEWLDLADAFYRVSLEKRPGHTPIPVLFGIDAVHGHGNIGSATIFPHNIALGATRDPELLRRIGEVTAVEMAATGIDWTFAPALSVVRDDRWGRTYEGFSEDPEIVAAYSAAIVEGVQGKFGSKDFMAPGRIVASAKHFLADGGTDQGRDQGDARISEDELIRIHNAGYPPAIDAGVLTVMASFSSWQGIKHHGHKQLLTDVLKGQMGFNGFIVGDWNAHDQVPGCTKFNCPTSLIAGLDMYMAADSWKQLYENTLAQVKDGTIPMARLDDAVRRILRVKVLAGLFEKPAPKDRPGLPGLETLGSPEHRAVGREAVRKSLVLLKNDKGTLPLSPKARVLVAGDGADNIGKQSGGWTISWQGTGNRNDEFPGATSILGGIRDAVADAGGSVEFDVAGQYKTKPDVAIVVFGEEPYAEFQGDVETLEYQPDQKQDLALLKKLKDQGIPVVAVFLSGRPMWVNPELNASDAFVAAWLPGTEGGGVADVLFTDKAGKVQHDFAGKLSYSWPRTAAQTTVNRGDADYNPLFAYGYGLTYKDKSKVGTLPEESGVPAEARQNAGIYFRAGALRLPGRFL | + (+ = 1.1 to 2.0 fold improvement over native CelA (SEQ ID NO: 4))
